Reference: publication doi:10.1101/2020.05.05.065912
Where two headings read alike, the source gives them in different places.

Experiments:
BRS-Myosin VI Tail-mRFP [1] = biological target: BRS-Myosin VI Tail-mRFP (UniProt Q9UM54); test: FRET or BRET
BRS-Myosin VI Tail-mRFP [2] = biological target: BRS-Myosin VI Tail-mRFP (UniProt Q9UM54); test: FRET or BRET; remark: listed apart in the source

Chain of UniProt Q9UM54 (Q9UM54 whole entry): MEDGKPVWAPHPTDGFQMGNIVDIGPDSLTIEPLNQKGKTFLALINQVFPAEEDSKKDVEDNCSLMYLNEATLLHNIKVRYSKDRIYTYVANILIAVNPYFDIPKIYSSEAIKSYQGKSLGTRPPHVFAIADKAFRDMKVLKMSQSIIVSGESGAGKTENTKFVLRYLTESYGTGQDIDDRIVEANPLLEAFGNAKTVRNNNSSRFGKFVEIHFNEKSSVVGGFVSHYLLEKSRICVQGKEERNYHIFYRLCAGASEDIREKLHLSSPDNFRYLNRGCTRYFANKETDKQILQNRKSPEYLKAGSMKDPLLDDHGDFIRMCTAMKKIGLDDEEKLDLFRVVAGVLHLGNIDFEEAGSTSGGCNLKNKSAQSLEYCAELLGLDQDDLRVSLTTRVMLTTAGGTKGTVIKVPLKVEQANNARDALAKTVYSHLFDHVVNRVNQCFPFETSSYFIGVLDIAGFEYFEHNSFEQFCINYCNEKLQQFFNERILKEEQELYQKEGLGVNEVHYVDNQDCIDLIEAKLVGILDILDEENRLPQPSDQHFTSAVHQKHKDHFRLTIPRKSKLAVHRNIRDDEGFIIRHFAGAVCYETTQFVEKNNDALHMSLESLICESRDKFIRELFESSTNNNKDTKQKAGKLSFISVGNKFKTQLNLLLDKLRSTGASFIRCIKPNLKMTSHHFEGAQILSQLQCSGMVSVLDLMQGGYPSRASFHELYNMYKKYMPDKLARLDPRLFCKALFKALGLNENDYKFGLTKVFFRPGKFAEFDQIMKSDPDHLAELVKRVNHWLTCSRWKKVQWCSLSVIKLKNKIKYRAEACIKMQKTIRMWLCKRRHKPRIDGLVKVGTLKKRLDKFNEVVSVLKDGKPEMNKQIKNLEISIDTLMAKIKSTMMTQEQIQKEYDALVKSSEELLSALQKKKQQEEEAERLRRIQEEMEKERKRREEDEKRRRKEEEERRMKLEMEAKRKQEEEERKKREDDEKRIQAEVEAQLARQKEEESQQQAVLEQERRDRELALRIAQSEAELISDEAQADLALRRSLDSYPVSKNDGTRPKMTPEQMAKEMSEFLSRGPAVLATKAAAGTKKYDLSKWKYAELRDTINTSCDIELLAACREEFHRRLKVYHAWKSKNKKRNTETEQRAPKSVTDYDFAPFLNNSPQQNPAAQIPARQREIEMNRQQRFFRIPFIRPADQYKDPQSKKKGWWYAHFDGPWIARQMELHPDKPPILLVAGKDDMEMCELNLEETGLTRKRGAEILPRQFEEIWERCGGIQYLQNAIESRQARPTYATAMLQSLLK

Kd (BRS-Myosin VI Tail-mRFP [1]): 3.9 µM
Kd (BRS-Myosin VI Tail-mRFP [2]): 1100 nM
B1: GFP-NDP52 (natural protein)
chain: MEETIKDPPTSAVLLDHCHFSQVIFNSVEKFYIPGGDVTCHYTFTQHFIPRRKDWIGIFRVGWKTTREYYTFMWVTLPIDLNNKSAKQQEVQFKAYYLPKDDEYYQFCYVDEDGVVRGASIPFQFRPENEEDILVVTTQGEVEEIEQHNKELCKENQELKDSCISLQKQNSDMQAELQKKQEELETLQSINKKLELKVKEQKDYWETELLQLKEQNQKMSSENEKMGIRVDQLQAQLSTQEKEMEKLVQGDQDKTEQLEQLKKENDHLFLSLTEQRKDQKKLEQTVEQMKQNETTAMKKQQELMDENFDLSKRLSENEIICNALQRQKERLEGENDLLKRENSRLLSYMGLDFNSLPYQVPTSDEGGARQNPGLAYGNPYSGIQESSSPSPLSIKKCPICKADDICDHTLEQQQMQPLCFNCPICDKIFPATEKQIFEDHVFCHSL
